From publication doi:10.1101/2022.06.02.494603 (bioRxiv, 2022)

Target: optineurin, C-terminal myc-FLAG-tagged (UniProt Q96CV9 1-577)
Assay: co-IP

Sequence of optineurin, C-terminal myc-FLAG-tagged (Q96CV9 whole entry): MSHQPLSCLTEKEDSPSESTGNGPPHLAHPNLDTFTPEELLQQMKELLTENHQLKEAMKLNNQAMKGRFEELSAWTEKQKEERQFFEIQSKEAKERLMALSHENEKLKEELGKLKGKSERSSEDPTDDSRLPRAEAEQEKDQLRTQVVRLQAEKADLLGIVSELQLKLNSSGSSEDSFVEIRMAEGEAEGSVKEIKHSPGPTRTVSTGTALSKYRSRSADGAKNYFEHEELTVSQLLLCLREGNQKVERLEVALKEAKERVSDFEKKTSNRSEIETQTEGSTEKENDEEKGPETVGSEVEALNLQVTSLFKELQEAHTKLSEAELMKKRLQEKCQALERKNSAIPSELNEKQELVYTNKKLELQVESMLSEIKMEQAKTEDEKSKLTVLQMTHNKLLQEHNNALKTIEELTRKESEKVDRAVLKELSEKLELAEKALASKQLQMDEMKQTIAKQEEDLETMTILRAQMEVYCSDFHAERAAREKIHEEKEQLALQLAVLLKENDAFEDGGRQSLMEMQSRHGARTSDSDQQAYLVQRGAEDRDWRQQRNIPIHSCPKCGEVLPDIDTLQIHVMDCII

B1: TBK1 T4A, untagged (natural protein, human, UniProt Q9UHD2 1-729, looked up)
chain: MQSASNHLWLLSDILGQGATANVFRGRHKKTGDLFAIKVFNNISFLRPVDVQMREFEVLKKLNHKNIVKLFAIEEETTTRHKVLIMEFCPCGSLYTVLEEPSNAYGLPESEFLIVLRDVVGGMNHLRENGIVHRDIKPGNIMRVIGEDGQSVYKLTDFGAARELEDDEQFVSLYGTEEYLHPDMYERAVLRKDHQKKYGATVDLWSIGVTFYHAATGSLPFRPFEGPRRNKEVMYKIITGKPSGAISGVQKAENGPIDWSGDMPVSCSLSRGLQVLLTPVLANILEADQEKCWGFDQFFAETSDILHRMVIHVFSLQQMTAHKIYIHSYNTATIFHELVYKQTKIISSNQELIYEGRRLVLEPGRLAQHFPKTTEENPIFVVSREPLNTIGLIYEKISLPKVHPRYDLDGDASMAKAITGVVCYACRIASTLLLYQELMRKGIRWLIELIKDDYNETVHKKTEVVITLDFCIRNIEKTVKVYEKLMKINLEAAELGEISDIHTKLLRLSSSQGTIETSLQDIDSRLSPGGSLADAWAHQEGTHPKDRNVEKLQVLLNCMTEIYYQFKKDKAERRLAYNEEQIHKFDKQKLYYHATKAMTHFTDECVKKYEAFLNKSEEWIRKMLHLRKQLLSLTNQCFDIEEEVSKYQEYTNELQETLPQKMFTASSGIKHTMTPIYPSSNTLVEMTLGMKKLKEEMEGVVKELAENNHILERFGSLTMDGGLRNVDCL
TBK1 bound to OPTN relative to wild type: 1.93 relative to TBK1 WT
